In patent publication US20260265800A1, “NEW FUCOSYLTRANSFERASES FOR IN VIVO SYNTHESIS OF LNFP-III” (DSM IP Assets B.V., priority 2022, published 2026):
Where “and” joins values, the source holds several entries; their conditions need not be identical. Equal values may be shown once.

Tested on: LNnT
Assay: Deep well assay: HMO profile of LNnT-producing strains expressing α-1,3-fucosyltransferases (HPLC)
Type: cell-based, Escherichia coli
Details: for LNFP-III, % of total HMO molar (mM) content produced by each strain: lactose as substrate, FT copy nr as in table 7 (enzyme names in text: single copy)
Description: Deep Well Assays in the current examples were performed as originally described to Lv et al (Bioprocess Biosyst Eng 20 (2016) 39:1737-1747) and optimized for the purposes of the current invention. More specifically, the strains disclosed in the present example were screened in 96 deep well plates using a 4-day protocol. During the first 24 hours, precultures were grown to high densities (OD600 up to 5) and subsequently transferred to a medium that allowed induction of gene expression and product formation.
More specifically, during day 1, fresh precultures were prepared using a basal minimal medium (BMM) (pH 7.0) supplemented with magnesium sulphate (0.12 g/L), thiamine (0.004 g/L) and glucose (5.5 g/L). Basal Minimal medium had the following composition: NaOH (1 g/L), KOH (2.5 g/L), KHzPO4 (7 g/L), NH&HzPO4 (7 g/L), Citric acid (0.5 g/l), trace mineral solution (5 mL/L). The trace mineral stock solution contained; ZnSO~*7H~O 0.82 g/L, Citric acid 20 g/L, Mn$04*H&O 0.98 g/L, FeSO4*7H&O 3.925 g/L, CuSO4*5H~O 0.2 g/L. The pH of the Basal Minimal Medium was adjusted to 7.0 with 5 N NaOH and autoclaved. The precultures were incubated for 24 hours at 34° C. and 1000 rpm shaking and then further transferred to 0.75 ml of a new BMM (pH 7,5) to start the main culture. The new BMM was supplemented with magnesium sulphate (0.12 g/L), thiamine (0.02 g/L), a bolus of glucose solution (0.1-0.15 g/L) and a bolus of lactose solution (5-20 g/L) Moreover, a 20% stock solution of sucrose (40-45 g/L) or maltodextrin (19-20 g/L) was provided as carbon source, accompanied by the addition of a specific hydrolytic enzyme, sucrose hydrolase or glycoamylase, respectively, so that glucose was released at a rate suitable for carbon-limited growth and similar to that of a typical fed-batch fermentation process. The main cultures were incubated for 72 hours at 28° C. and 1000 rpm shaking. For the analysis of total broth, the 96 well plates were boiled at 100° C., subsequently centrifuged, and finally the supernatants were analysed by HPLC.
Genetically modified cells expressing individual α-1,3-fucosyltransferase enzymes were screened for their ability to produce the fucosylated HMO LNFP-III.
Genetically modified strains expressing the six individual α-1,3-fucosyltransferases (table 5) were generated as described in the “Method” section. The cells were screened in the deep well assay setup as described in the “Method” section.
The molar content of individual HMOs produced by the strains was measured by HPLC.
The results of the LNFP-III producing cells are shown in table 7 as the fraction of the total molar HMO content (in percentage, %) produced by each strain.

[1] = FT copy nr as in table 7, listed as FutT109

B1: Med1: α-1,3-fucosyltransferase from Mediterranea sp. An20, GenBank WP_087337236.1, SEQ ID NO: 4 (protein, listed as Mediterranea sp.)
chain: MRKILILFYNKLWGVSWENEACASIPDGFELTDDRSRMAEADAVVFHLPDLARCMDGEEIEKRDGQLWVTWNLECDDNYPWVEAPEIRDLFDLRIGYRQQDDVWYPYFSFIRAEAFTRLPPRRPPLDKACLFVSSPFNRSHRFEFLRELMRHTEVDSFGRMLHNKDLPADEGRKTLMEKIADYKFVIGVENALARDYVTEKFFQPLLAGTVPVYRGAPNVEEFAPGRHCFVDARAFRSPADLAGFMNRCYEHPALYDELTAWRTQPLQPGFVQKLEQVKEHPFVRLCRVVEEKIRRIEYKIT
LNDFH-III, % of total HMO molar (mM) content produced by each strain (FT copy nr as in table 7): do not produce any

B2: Hpull1: α-1,3-fucosyltransferase from Helicobacter pullorum, GenBank WP_065831246.1, SEQ ID NO: 3 (protein, listed as Helicobacter pullorum)
chain: MRKDLVIIRVDGGIASQISFVALGLEFESRGYKVKYDLSWFDEFGNGICNEQNGYDRSYNIVFDIPKAFPDIKCEIASRDEIEIYRKKYFVDNEEVIELKPPLYVGGYLGRHFNFKYRDFFAKHFNPKEIQESDSECKILLDNILSNHSCGVHIRRGDLSKEHVVYGKPLSVEYFLKNIQLVLQIEPKSKFYFFGDDLEWVKKKVIPSLNSIEYEICNVNSVEKGYLDLYLLSRCKIIIASQGSMGKFAKMLASDTETLLIAPNKNAPMENMIMVNWVDSYESSGEKQIQKPLSWRNKIRLKIYKKFRNKLLQKGIL
LNDFH-III, % of total HMO molar (mM) content produced by each strain (FT copy nr as in table 7): do not produce any

B3: Hacin2: α-1,3-fucosyltransferase from Helicobacter acinonychis, GenBank WP_104687422.1, SEQ ID NO: 5 (protein, listed as Helicobacter acinonychis)
chain: MFQPLLDAYTDSAYSDASDHKPPLNIAIANGWGGTKGFEASVLYFILSWRYKIALHENPNKPADLVFSNPLGQARKILSYQNTKRVFYTGENEVPNFNLFDYAIGFDGLDFKERYLRMPLYYASLHDKAQSVNDTTAPYTLKSDSLYALKKPAHCFKEDHPKLCSVVKGESDPFKRGFASFVAGNANAPMRNAFCEALNSVEPVTGGGAVKNTLGYNVTNKSEFLSQYKFNLCFENAQGYGYVTEKIIDAYFSHTIPIYWGSPSVAQDFNPKSFVNVHDFKDFDGAIDYIRYLHTHENAYLDMLYENPLNVIDGKACFYQDLSFKKILDFFKTILENDTIYHNNPFVFDRDLHEPLVSIDNLRADLLLLKDNYDGLKTDYDGLKTDYDGLKTDYDGLKTDYDGLKTDYDGLKTDYDGLKTDYDHLFKSALPLLELSQTTSFKIYHKIYQKTLPLLRMARKLVKK
LNDFH-III, % of total HMO molar (mM) content produced by each strain (FT copy nr as in table 7): do not produce any

B4: FucT109: prior art α-1,3-fucosyltransferase from Bacteroides fragilis ATCC 25285, GenBank CAH09151.1, SEQ ID NO: 42 (protein, listed as Bacteroides fragilis)
chain: MCDCLSIILLVKMKKIYLKFVDFWDGFDTISNFIVDALSIQYEVVLSNEPDYLFYSCFGTSHLEYDCIKIMFIGENIVPDFNVCDYAIGFNYIDFGDRYLRLPLYAIYDGFSNLQNKKIDVNKALDRKFCSIVVSNNKWADPIRETFFKLLSSYKKVDSGGRAWNNIGGPVDNKLDFISQYKFNIAFENSRVLGYTTEKIMEPMQVNSIPVYWGNPLVGKDFNVDSFVNAHDFDSLERLVEYIIELDSSKDKYLEMLEKPWLLDKTYLDWKQLLLNFINNIMMKSYKDAKYLVNYGHAGKYRNEQRFWGRCERKFKLQRIIEYYSQLFDRK
3-FL, % of total HMO molar (mM) content produced by each strain (FT copy nr as in table 7): 2.0 ± 1.8%
LNFP-VI, % of total HMO molar (mM) content produced by each strain (FT copy nr as in table 7): 18%
LNnT, % of total HMO molar (mM) content produced by each strain (FT copy nr as in table 7): 28.7 ± 1.6%
pLNnH, % of total HMO molar (mM) content produced by each strain (FT copy nr as in table 7): 0.8 ± 0.7%
LNDFH-III, % of total HMO molar (mM) content produced by each strain [1]: 24% and 23.9 ± 1.8%
LNFP-VI, % of total HMO molar (mM) content produced by each strain [1]: 18.0 ± 2.6%
LNFP-III, % of total HMO molar (mM) content produced by each strain: 26%
LNFP-III, % of total HMO molar (mM) content produced by each strain (listed as FutT109): 26.6 ± 3.5%

B5: CafD: prior art α-1,3-fucosyltransferase from Helicobacter hepaticus ATCC 51449, GenBank AAP76669.1, SEQ ID NO: 41 (protein, listed as Helicobacter hepaticus)
chain: MKDDLVILHPDGGIASQIAFVALGLAFEQKGAKVKYDLSWFAEGAKGFWNPSNGYDKVYDITWDISKAFPALHIEIANEEEIERYKSKYLIDNDRVIDYAPPLYCYGYKGRIFHYLYAPFFAQSFAPKEAQDSHTPFAALLQEIESSPSPCGVHIRRGDLSQPHIVYGNPTSNEYFAKSIELMCLLHPQSSFYLFSDDLAFVKEQIVPLLKGKTYRICDVNNPSQGYLDLYLLSRCRNIIGSQGSMGEFAKVLSPHNPLLITPRYRNIFKEVENVMCVNWGESVQHPPLVCSAPPPLVSQLKRNAPLNSRLYKEKDNASA
3-FL, % of total HMO molar (mM) content produced by each strain (FT copy nr as in table 7): 0.0 ± 0.0%
LNDFH-III, % of total HMO molar (mM) content produced by each strain (FT copy nr as in table 7): 0.0 ± 0.0%
LNFP-VI, % of total HMO molar (mM) content produced by each strain (FT copy nr as in table 7): 0.0 ± 0.0%
LNnT, % of total HMO molar (mM) content produced by each strain (FT copy nr as in table 7): 81.9 ± 1.3%
pLNnH, % of total HMO molar (mM) content produced by each strain (FT copy nr as in table 7): 18.1 ± 1.3%
LNFP-III, % of total HMO molar (mM) content produced by each strain: 0.0 ± 0.0%
production of fucosylated HMOs (fucosylation of LNnT or lactose) (single copy): does not produce any fucosylated HMOs

B6: Camp1: α-1,3-fucosyltransferase from Campylobacter sp., GenBank MBP3676691.1, SEQ ID NO: 1 (protein, listed as Campylobacter sp.)
chain: MRKDLVIIRVDGGIASQIAFVALGLEFESRGYKVKYDLSWFDEFGNGFYNEQNGYDRSYNITFDIPKAFPDIKCEIASRDEIEIYRKKYFVDNEEVIELKPPLYVGGYLGRHFDFKYRDFFAKHFNPKEIQESDSECKILLDNILSNHSCGVHIRMGDLSKEHVVYGKPLSVEYFLKNIQLVLQIEPKSKFYFFSDDLEWVKKKVIPSLHSIEYEICNVNSVEKGYLDLYLLSRCKIIIASQGSMGKYAKMLALDSKTLLITPNKNAPMENMMMVNWADSYESFEEKQIQKPLSWRNKIRLKIYKKLRNKLLQKGIL
LNDFH-III, % of total HMO molar (mM) content produced by each strain (FT copy nr as in table 7): do not produce any

B7: FutB: prior art α-1,3-fucosyltransferase from Helicobacter pylori, GenBank WP_000487430.1, SEQ ID NO: 6 (protein, listed as Helicobacter pylori)
chain: MFQPLLDAFIESASIEKMVSKSPPPPLKIAVANWWGDEEIKEFKKSVLYFILSQRYAITLHQNPNESSDLVFSNPLGAARKILSYQNTKRVFYTGENESPNFNLFDYAIGFDELDFNDRYLRMPLYYAHLHYEAELVNDTTAPYKLKDNSLYALKKPSHHFKENHPNLCAVVNDESDLLKRGFASFVASNANAPMRNAFYDALNSIEPVTGGGSVRNTLGYKVGNKSEFLSQYKFNLCFENSQGYGYVTEKILDAYFSHTIPIYWGSPSVAKDFNPKSFVNVHDFNNFDEAIDYIKYLHTHPNAYLDMLYENPLNTLDGKAYFYQDLSFKKILDFFKTILENDTIYHNNPFIFYRDLHEPLISIDDLRVNYDDLRVNYDDLRVNYDDLRVNYDDLRVNYDDLRVNYDDLRVNYDDLRVNYDDLRVNYDDLRVNYDRLLQNASPLLELSQNTTFKIYRKAYQKSLPLLRTIRRWVKK
LNDFH-III, % of total HMO molar (mM) content produced by each strain (FT copy nr as in table 7): 0.0 ± 0.0%
LNnT, % of total HMO molar (mM) content produced by each strain (FT copy nr as in table 7): 78.9 ± 0.4%
pLNnH, % of total HMO molar (mM) content produced by each strain (FT copy nr as in table 7): 13.2 ± 0.2%
LNFP-III, % of total HMO molar (mM) content produced by each strain: 6% and 6.2 ± 0.5%
